One block for each molecule: values may come before it.
Assays:
[1] = Helical propensity analysis using TFE (CD at 222 nm); format: physicochemical; conditions: 0.2 mg/mL in PBS (pH 7.5), MRE at 222 nm
Method: In addition, trifluoroethanol (TFE) is known to induce helix formation in peptides (Soennichsen et al., Biochemistry 31: 8791 (1992)). Accordingly, helical propensity analysis using TFE was performed. Briefly, tested peptides were diluted to 0.2 mg/mL in PBS (pH 7.5) containing 0, 1, 5, 15, 33 or 50% TFE. CD spectra were collected and CD plots were generated after data averaging, buffer subtraction and curve smoothing. Helical propensity values were obtained from mean residue ellipticity (MRE) at 222 nm versus % TFE plots. The concentration of TFE that effected a 50% transformation of the CD spectrum at 222 nm was used as a measure of helical propensity.

CD1 mice = assay: Mucosal wet weight of small intestine after 10 daily subcutaneous injections; format: in vivo; conditions: 2.5 mg/kg (13.3 nmole) daily s.c. 10 days; p<0.0001
Excerpt: Afterwards, the mice were euthanized and the small intestines were removed, flushed with saline, and processed as described below.
Specifically, 4 cm sections were harvested: (1) immediately distal to the pylorus (duodenum), (2) starting 2 cm distal of the ligament of Treitz (jejunum), and (3) immediately proximal to the cecum (ileum). The remaining small intestine from ˜6 cm distal of the ligament of Treitz to 4 cm proximal to the cecum was used to prepare mucosal scrapings. From the proximal and distal ends of the remnant, an equal distance was removed until a 15 cm section remained, the remnant was cut longitudinally, rinsed, and the mucosal layer was removed using the short end of a glass microscope slide. The wet weight of the intact intestinal segments and mucosa was measured.

mice = assay: Upper gastrointestinal transit, carmine dye technique, normal mice; format: in vivo; conditions: 50 μg/mouse daily s.c. 10 days, 20-minute test period, vs PBS vehicle, FIG. 3
Method: To test the effects of A2G-GLP-2 on upper gastrointestinal transit in normal mice, mice were randomly assigned to 2 groups (14 animals per test group). Each group received daily subcutaneous injection (total volume […]) of either A2G-GLP-2 peptide (50 μg/mouse) or the phosphate-buffered saline vehicle for 10 consecutive days.
On the day of study, upper gastrointestinal transit was measured using the carmine dye technique. Mice were fed a test meal of 0.25 ml of a 6% (w/v) solution of carmine cochineal powder mixed into 0.5% (w/v) methylcellulose administered intragastrically by an 18 gauge curved feeding tube. Following oral test meal administration, mice were replaced into their home cages. Twenty minutes after marker meal administration, mice were rapidly euthanized by cervical dislocation and the entire gastrointestinal tract was excised starting from the distal colon and working towards the gastric pylorus. […] The linear distance traversed by the carmine dye front through the small intestine was measured together with the total length of the small bowel. Upper gastrointestinal transit was expressed as the percentage of the entire small intestine traversed by the carmine dye front during the 20-minute test period: % small intestine traveled =[distance traversed by dye front through small intestine (cm)/entire small intestine length (cm)×100].

[2] = SEC-SLS self-association of peptides in PBS (pH 7.5); format: physicochemical; conditions: 1 mg/ml
Method: The self-association poses a challenge to the development and manufacturing of a homogeneous therapeutic.
(§1) Solution molecular weight of the peptides was measured by SEC-SLS. Briefly, peptide solutions in PBS (pH 7.5) at 0.4 to 2.0 mg/mL were fractionated over a Superdex peptide column (Amersham Pharmacia). The eluted peaks were monitored by static light scattering at 690 nm and solution molecular weight was determined at UV 280 nm using the Astra software package (Wyatt Inc.).

[3] = CD spectra secondary structure of peptides; format: physicochemical; conditions: 0.2 mg/mL in PBS, 25° C.
Method: The secondary structures of tested peptides were determined using 0.2 mg/mL peptide solutions in PBS. Briefly, CD spectra were collected in triplicate at 1 nm intervals at 25° C. in 0.1 cm path length cell. Secondary structures were determined by fitting of the CD spectra using CD spectra software (CD Spectra Deconvolution software 2.1). All tested peptides contained peaks corresponding to the presence of alpha helices.

[4] = background statement; cited from earlier work
[5] = Incubation with U937 cell lysate, SDS-PAGE (proteolysis resistance); format: in vitro ADME; conditions: 0, 12, 24 hours; in comparison with A2G GLP-2 mimetibody (SEQ ID NO: 5); FIG. 1
Method: The purified Pro substitution variants were incubated with U937 cell lysate in the presence of CompleteMini protease inhibitor tablets (Cat. No. 1 836 153, Roche Applied Science, Indianapolis, Ind.) for 0, 12, or 24 hours. Afterwards, GLP-2 mimetibody variants were purified using Protein A beads and resolved on a SDS-PAGE gel.

mutated human GLP-2R [6] = target: T1, mutated human GLP-2R (Homo sapiens, UniProt O95838, E512D/G511A/L513V); assay: cAMP expression assay in HEK 293E clonal cell line expressing mutated human GLP-2R; format: cell-based; conditions: Table 2; mimetibodies with Pro substitution; read-out: EC50
T1 construct: expressed in transfected cells; host or cells: HEK 293E clonal cell line
T1 sequence (O95838 1-553 G511A/E512D/L513V): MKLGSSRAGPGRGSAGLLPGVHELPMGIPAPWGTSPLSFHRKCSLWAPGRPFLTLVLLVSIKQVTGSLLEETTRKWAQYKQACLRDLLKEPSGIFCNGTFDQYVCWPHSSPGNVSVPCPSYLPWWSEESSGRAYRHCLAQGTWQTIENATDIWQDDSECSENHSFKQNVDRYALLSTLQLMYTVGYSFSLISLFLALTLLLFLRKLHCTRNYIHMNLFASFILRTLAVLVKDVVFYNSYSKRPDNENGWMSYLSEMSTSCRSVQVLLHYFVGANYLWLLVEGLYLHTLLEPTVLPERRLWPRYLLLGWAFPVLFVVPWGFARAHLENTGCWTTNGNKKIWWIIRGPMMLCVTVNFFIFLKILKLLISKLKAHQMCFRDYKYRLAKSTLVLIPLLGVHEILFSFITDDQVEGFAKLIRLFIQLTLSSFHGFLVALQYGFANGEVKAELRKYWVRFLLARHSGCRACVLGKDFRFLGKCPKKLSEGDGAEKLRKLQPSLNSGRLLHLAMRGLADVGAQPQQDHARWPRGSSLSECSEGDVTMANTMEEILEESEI
Excerpt: To achieve this goal, a clonal cell line expressing a mutated human GLP-2R was generated by transfecting HEK 293E cells. The mutated human GLP-2R differs from the wild-type human GLP-2R (SEQ ID NO: 35) at three amino acid positions within the C-terminal intracellular region (SEQ ID NO: 36).
The cAMP expression was quantitated using the cAMP Direct Screen System (Cat. No. CSD 200, Applied Biosystems, Bedford, Mass.).
This assay was based on the cAMP Direct Screen System from Applied Biosystems utilizing a cell line expressing mutated huGLP-2R in HEK 293E cells. Peptide at concentrations ranging from 0.01 nM to 1.0 uM in PBS with 0.5% BSA was added to ˜50,000 cells suspended in 96-well plates. After a 30-minute incubation at 37° C., Lysis Buffer followed by luminescence reagents (Applied Biosystems) was added according to the manufacturers' procedures (Applied Biosystems Luminescence protocol: cAMP-Screen Direct System). Luminescence was quantitated using a TopCount liquid scintillation analyzer (PerkinElmer), and data was processed using Softmax software (Molecular Devices Corporation).

mutated human GLP-2R [7] = target: T2, mutated human GLP-2R (human, UniProt O95838 1-553); assay: cell-based or functional assay
T2 chain: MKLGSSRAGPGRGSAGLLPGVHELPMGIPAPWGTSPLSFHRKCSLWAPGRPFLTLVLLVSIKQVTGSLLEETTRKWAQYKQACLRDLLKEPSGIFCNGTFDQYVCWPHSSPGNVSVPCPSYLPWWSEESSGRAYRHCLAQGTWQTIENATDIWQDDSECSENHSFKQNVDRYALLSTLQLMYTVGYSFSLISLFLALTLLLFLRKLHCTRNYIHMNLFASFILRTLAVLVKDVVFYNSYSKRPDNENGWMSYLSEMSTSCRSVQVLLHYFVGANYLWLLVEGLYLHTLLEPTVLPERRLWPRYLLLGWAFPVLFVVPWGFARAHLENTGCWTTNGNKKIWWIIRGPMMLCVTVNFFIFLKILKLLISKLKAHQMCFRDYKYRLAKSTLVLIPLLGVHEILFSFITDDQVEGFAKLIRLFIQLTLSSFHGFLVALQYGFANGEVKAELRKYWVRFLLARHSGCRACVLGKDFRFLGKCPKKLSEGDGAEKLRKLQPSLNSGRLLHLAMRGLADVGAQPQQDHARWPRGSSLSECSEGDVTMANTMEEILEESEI

[8] = target: the molecule itself; assay: SEC-SLS, self-association in PBS pH 7.5
mutated human GLP-2R [9] = target: T2, mutated human GLP-2R; assay: cell-based or functional assay
[10] = target: the molecule itself; assay: SEC-SLS, self-association at 1 mg/ml in PBS pH 7.5
Method: as §1

[11] = SEC-SLS analysis of mimetibodies (monomer/dimer); format: physicochemical; conditions: purified from HEK 293E/HEK 293 expression

Molecule: CC[C@H](C)[C@H](NC(=O)[C@H](Cc1ccccc1)NC(=O)[C@H](CC(=O)O)NC(=O)[C@H](CCCNC(=N)N)NC(=O)[C@H](C)NC(=O)[C@H](C)NC(=O)[C@H](CC(C)C)NC(=O)[C@H](CC(N)=O)NC(=O)[C@H](CC(=O)O)NC(=O)[C@H](CC(C)C)NC(=O)[C@@H](NC(=O)[C@@H](NC(=O)[C@H](CC(N)=O)NC(=O)[C@H](CCSC)NC(=O)[C@H](CCC(=O)O)NC(=O)[C@H](CC(=O)O)NC(=O)[C@H](CO)NC(=O)[C@H](Cc1ccccc1)NC(=O)[C@H](CO)NC(=O)CNC(=O)[C@H](CC(=O)O)NC(=O)CNC(=O)[C@@H](N)Cc1c[nH]cn1)[C@@H](C)O)[C@@H](C)CC)C(=O)N[C@@H](CC(N)=O)C(=O)N[C@@H](Cc1c[nH]c2ccccc12)C(=O)N[C@@H](CC(C)C)C(=O)N[C@H](C(=O)N[C@@H](CCC(N)=O)C(=O)N[C@H](C(=O)N[C@@H](CCCCN)C(=O)N[C@H](C(=O)N[C@H](C(=O)N[C@@H](CC(=O)O)C(=O)O)[C@@H](C)O)[C@@H](C)CC)[C@@H](C)O)[C@@H](C)CC [teduglutide]
half-life [4]: less than 30 minutes

B1: GLP-2(A2G, L17Q) (peptide)
peptide: HGDGSFSDEMNTILDNQAARDFINWLIQTKITD
notes: Synthetic analog of human GLP-2, >95% purity; also called GLP-2(A2G, L17Q) peptide
activity in cAMP expression assay, fold less than wild type GLP-2 (mutated human GLP-2R [7]): 3 fold
binding result [8]: no binding (tested: 1 mg/ml)
cAMP in Vitro EC50 values (mutated human GLP-2R [9]): 5.2 nM

B2: A2G GLP-2 peptide (peptide)
peptide: HGDGSFSDEMNTILDNLAARDFINWLIQTKITD
notes: Analog of human GLP-2 with Ala2 changed to Gly; also called A2G peptide; GLP-2(A2G)
binding result [10]: binds

B3: SEQ ID NO: 4: A2S GLP-2 mimetibody, IgG4 Hg-CH2-CH3 with S228P and P234A/L235A (protein)
chain: HSDGSFSDEMNTILDNLAARDFINWLIQTKITDGSGGGSGTLVTVSSESKYGPPCPPCPAPEAAGGPSVFLFPPKPDTLMISRTPEVTCVVVDVSQEDPEVQFNWYVDGVEVHNAKTKPREEQFNSTYRVVSVLTVLHQDWLNGKEYKCKVSNKGLPSSIEKTISKAKGQPREPQVYTLPPSQEEMTKNQVSLTCLVKGFYPSDIAVEWESNGQPENNYKTTPPVLDSDGSFFLYSRLTVDKSRWQEGNVFSCSVMHEALHNHYTQKSLSLSLGK
modifications: Mimetibody
SEC-SLS association state of mimetibody [11]: dimer

Second part, led by results:

TFE required for helical transformation (helical propensity) [1]: ~16 % TFE
SEC-SLS elution / self-association state [2]: overlapping dimer and monomer peaks
Helix (percentage of helical structure) [3]: 20.7%
Random coil (percentage) [3]: 37.1%
Molecule: CC[C@H](C)[C@H](NC(=O)[C@H](Cc1ccccc1)NC(=O)[C@H](CC(=O)O)NC(=O)[C@H](CCCNC(=N)N)NC(=O)[C@H](C)NC(=O)[C@H](C)NC(=O)[C@H](CC(C)C)NC(=O)[C@H](CC(N)=O)NC(=O)[C@H](CC(=O)O)NC(=O)[C@H](CC(C)C)NC(=O)[C@@H](NC(=O)[C@@H](NC(=O)[C@H](CC(N)=O)NC(=O)[C@H](CCSC)NC(=O)[C@H](CCC(=O)O)NC(=O)[C@H](CC(=O)O)NC(=O)[C@H](CO)NC(=O)[C@H](Cc1ccccc1)NC(=O)[C@H](CO)NC(=O)CNC(=O)[C@H](CC(=O)O)NC(=O)CNC(=O)[C@@H](N)Cc1c[nH]cn1)[C@@H](C)O)[C@@H](C)CC)C(=O)N[C@@H](CC(N)=O)C(=O)N[C@@H](Cc1c[nH]c2ccccc12)C(=O)N[C@@H](CC(C)C)C(=O)N[C@H](C(=O)N[C@@H](CCC(N)=O)C(=O)N[C@H](C(=O)N[C@@H](CCCCN)C(=O)N[C@H](C(=O)N[C@H](C(=O)N[C@@H](CC(=O)O)C(=O)O)[C@@H](C)O)[C@@H](C)CC)[C@@H](C)O)[C@@H](C)CC [SEQ ID NO: 3]
increase in mucosal wet weight (CD1 mice): statistically significant increase
upper gastrointestinal transit (% small intestine traveled by carmine dye front) (mice; listed as A2G-GLP-2): acceleration of upper gastrointestinal transit
upper gastrointestinal transit (% small intestine traveled by carmine dye front) (mice; listed as A2G-GLP-2 peptide): significant acceleration of intestinal transit

EC50 (mutated human GLP-2R [6]): 4.8 nM
Molecule: SEQ ID NO: 43: GLP-2 mimetibody Pro substitution variant; core HGDGSFSDEMNTILDNLAARDFINWLIQTKITDGSGGGSGALVAVPSESKYGPPCPPCP (Mimetibody)
degradation after incubation with U937 cell lysate [5]: less degradation

EC50 (mutated human GLP-2R [6]): 7.7 nM
Molecule: SEQ ID NO: 44: GLP-2 mimetibody Pro substitution variant; core HGDGSFSDEMNTILDNLAARDFINWLIQTKITDGSGGGSGALVAVSPESKYGPPCPPCP (Mimetibody)
degradation after incubation with U937 cell lysate [5]: less degradation
